Tests used:
[1] = molecular target: human SIDT1 (hSIDT1) (human) (UniProt Q9NXL6); assay: cryo-EM structure; hSIDT1 at pH 5.5 (hSIDT1^pH5.5); homodimer, dimer interface rearranged against pH 7.5
[2] = molecular target: human SIDT1 (hSIDT1) (human) (UniProt Q9NXL6); assay: cryo-EM structure; hSIDT1 at pH 7.5 (hSIDT1^pH7.5); cholesteryl hemisuccinate in the buffer during membrane solubilization; homodimer

human SIDT1 (hSIDT1) (from UniProt Q9NXL6 20-827) (natural protein)
stoichiometry N [1]: 2
stoichiometry N [2]: 2

— article PMC10879482
